The source of these data is article PMC5288973.

The assay concerns the target taxol-stabilized microtubules assembled from bovine brain tubulin (bovine) (UniProt Q6B856). Put plainly: co-sedimentation; various amounts of MBP-GPT2 with a constant amount of taxol-stabilized MTs polymerized from 1 uM tubulin heterodimer; fit of q = (qmax x c)/(Kd + c), one GPT2 binding site on the tubulin dimer assumed.

For the substance “MBP-GPT2 (full-length Growing Plus-end Tracking protein 2 fused to maltose-binding protein) (from UniProt Q94B38 69-388) (natural protein)”, the stoichiometry N (mol of GPT2 per mol of tubulin dimer) was 2.5.
